The test system of the series is ATP. Kind of series: switch fluorescence ratio, 500 uM ATP over buffer (Cy3 cluster intensity, sum of 5 cycles each) (fold (ratio)); higher = stronger signal-on switching upon ATP binding; sequences stand for … in TCGTCGGCAGCGTCAGATGTGTATAAGAGACAGTTTTTTTTTTTTTTTTTTTTTTTTT…TC. The conditions noted are these: aptamer strand: ATP DNA aptamer (quencher-CACCTGGGGGAGTATTGCGGAGGAAGG + anchor), 100 nM annealed; ATP concentration: 500 uM. An outline of the steps:
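Values give the fluorescence ratio for each switch-domain sequence, averaged from per-cluster ratios of summed target-cycle to summed buffer-cycle Cy3 intensity. The Cy3-labelled switching-strand clusters sat on a modified Illumina MiSeq flow-cell, were annealed to 100 nM quencher-labelled ATP aptamer, and were imaged in selection buffer, then after 15 min with 500 uM ATP at 22 °C. Five cycles ran with NaOH stripping and re-annealing between them, and clusters outside 100-1000 RFU were excluded.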

± gives the standard deviation of the averaged measurements.
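Note: ATP exposure 15 min at 22 °C before imaging.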

For TGAGGGAGCA, the switch fluorescence ratio amounted to 1.01 ± 0.11. Under TGAGGGAGTG stands 0.996 ± 0.021. Under TGAGGGCATT stands 1 ± 0.012; under TGAGGGGCGC, 0.988 ± 0.028.

On to TGAGGGGTGA, for which the switch fluorescence ratio amounted to 1.01 ± 0.029. On to TGAGGGTTTA, for which the switch fluorescence ratio worked out at 0.991 ± 0.017. With TGAGGTATCT the figure was 1.007 ± 0.0091. Take TGAGGTGCGG: the switch fluorescence ratio is 0.996 ± 0.024. Consider TGAGGTTAAC, for which the switch fluorescence ratio was determined as 0.957 ± 0.023. For the sequence TGAGGTTCGA, the switch fluorescence ratio turned out to be 0.98 ± 0.03. Under TGAGTGAGTG stands 0.9933 ± 0.0015; under TGAGTGGCTT, 0.967 ± 0.034; under TGAGTGGGGA, 1 ± 0.013.

As for TGAGTGGGGT, the switch fluorescence ratio came to 1.02 ± 0.031. As for TGAGTTAGGG, the switch fluorescence ratio was found to be 0.985 ± 0.017. Under TGAGTTTCCA stands 0.958 ± 0.011; under TGAGTTTCTG, 0.968 ± 0.014. With TGAGTTTTAC, the switch fluorescence ratio worked out at 1.04 ± 0.03.

Turning to TGATAACCGC, the switch fluorescence ratio amounted to 1.1 ± 0.039. Under TGATAAGAGT stands 1.01 ± 0.011. With TGATAAGTG the figure was 0.9877 ± 0.0016; with TGATAATGTT, 0.997 ± 0.014; with TGATAGAGGA, 0.988 ± 0.059. For TGATAGGGTC, the switch fluorescence ratio was 1.06 ± 0.11. With TGATAGTGAT the figure was 0.988 ± 0.024. As for TGATAGTTGA, the switch fluorescence ratio is 1.005 ± 0.0026. With TGATATAGCA the figure was 1.03 ± 0.013; with TGATATCCGA, 1.04 ± 0.013; with TGATATTGG, 0.971 ± 0.045. Under TGATATTTCT stands 1 ± 0.011; under TGATCAAATG, 0.989 ± 0.023.

For TGATCACACG, the switch fluorescence ratio was found to be 1.024 ± 0.01. With TGATCAGGGG the figure was 1.03 ± 0.021; with TGATCCTTGG, 1.03 ± 0.031. With TGATCGTCGG the figure was 1.02 ± 0.013; with TGATCTAGGC, 0.98 ± 0.074. Take TGATCTTTCT: the switch fluorescence ratio is 1.01 ± 0.059. Under TGATGACCAT stands 1.006 ± 0.0079; under TGATGATGAC, 1.01 ± 0.0038. Under TGATGATGAG stands 0.996 ± 0.013. With TGATGATTTC the figure was 1.009 ± 0.009. As to TGATGGCATT, the switch fluorescence ratio was found to be 0.9893 ± 0.0071.

Take TGATGGCCCG: the switch fluorescence ratio amounted to 1.03 ± 0.092. With TGATGGCGTT the figure was 1 ± 0.031. Regarding TGATGGGGCT, the switch fluorescence ratio was determined as 0.975 ± 0.038. As for TGATGGGTAT, the switch fluorescence ratio amounted to 1 ± 0.028.

Regarding TGATGGGTTG, the switch fluorescence ratio was 1 ± 0.03. Under TGATGTTAGC stands 1.03 ± 0.036; under TGATGTTGTC, 0.988 ± 0.033. With TGATTAATGT the figure was 0.9996 ± 0.0099. With TGATTAGTCG the figure was 1.01 ± 0.023; with TGATTATTGG, 1 ± 0.061.

For the sequence TGATTCAGGG, the switch fluorescence ratio was 1.028 ± 0.0081. Under TGATTCTCGT stands 1.02 ± 0.018. Under TGATTGAAGC stands 1.03 ± 0.032. On to TGATTGAGTT, for which the switch fluorescence ratio was determined as 1 ± 0.016. With TGATTGGCTG the figure was 1.02 ± 0.045; with TGATTGGGGG, 0.989 ± 0.031; with TGATTGGGTA, 1 ± 0.019.

Regarding TGATTGGGTG, the switch fluorescence ratio worked out at 1.01 ± 0.054. With TGATTGTAAT, the switch fluorescence ratio turned out to be 0.9655 ± 0.0069. In the case of TGATTGTGCG, the switch fluorescence ratio worked out at 0.957 ± 0.021. Turning to TGATTTAGGC, the switch fluorescence ratio is 0.9803 ± 0.009.

For the sequence TGATTTGGCA, the switch fluorescence ratio worked out at 1.02 ± 0.0023. For the sequence TGATTTGGCT, the switch fluorescence ratio stood at 1.02 ± 0.031.

On to TGATTTTAAG, for which the switch fluorescence ratio came to 0.999 ± 0.018.

As to TGATTTTAGA, the switch fluorescence ratio worked out at 0.974 ± 0.052. Take TGATTTTTAT: the switch fluorescence ratio stood at 1.011 ± 0.0089.

Consider TGATTTTTTA, for which the switch fluorescence ratio came out at 0.992 ± 0.025.

Regarding TGCAAAGGGC, the switch fluorescence ratio amounted to 1.01 ± 0.015. Take TGCAACCTTG: the switch fluorescence ratio is 1.0397 ± 0.0007. As to TGCAACCTTT, the switch fluorescence ratio is 1.02 ± 0.014.

Turning to TGCAACGGGT, the switch fluorescence ratio was found to be 1.02 ± 0.018. Under TGCAACTTTT stands 1.01 ± 0.019. For the sequence TGCAAGAAGG, the switch fluorescence ratio stood at 0.9832 ± 0.0053.

On to TGCAAGCGAC, for which the switch fluorescence ratio is 2.61 ± 0.18.

For the sequence TGCAAGTGAA, the switch fluorescence ratio was 0.997 ± 0.053. With TGCAAGTTTT the figure was 1.24 ± 0.33. Regarding TGCAATGTAG, the switch fluorescence ratio worked out at 1.082 ± 0.0029. With TGCAATTCAG the figure was 1.14 ± 0.012; with TGCAATTTTT, 1.04 ± 0.077; with TGCACACGTG, 0.9787 ± 0.0068. Consider TGCACCTTGG, for which the switch fluorescence ratio worked out at 1.014 ± 0.0099. Regarding TGCACTGGGA, the switch fluorescence ratio was 1.04 ± 0.034. With TGCAGAAGGT the figure was 0.992 ± 0.03. As for TGCAGATTTC, the switch fluorescence ratio is 0.9978 ± 0.0088. Under TGCAGCAGGT stands 1.18 ± 0.025; under TGCAGCATGA, 1.333 ± 0.008. In the case of TGCAGCATTA, the switch fluorescence ratio came to 2.31 ± 0.19. Under TGCAGCTGTA stands 1.04 ± 0.014. Under TGCAGGGACG stands 1 ± 0.03. TGCAGGGCAA: the switch fluorescence ratio was 1.02 ± 0.044.

For the sequence TGCAGGGCGT, the switch fluorescence ratio worked out at 1.01 ± 0.031. With TGCAGGGGTC, the switch fluorescence ratio came to 1.02 ± 0.025. For the sequence TGCAGTCTAG, the switch fluorescence ratio is 1.07 ± 0.15.

TGCAGTTTTT: the switch fluorescence ratio is 0.999 ± 0.029. As to TGCATACGGC, the switch fluorescence ratio amounted to 1.04 ± 0.07. In the case of TGCATAGGGA, the switch fluorescence ratio was 1.01 ± 0.035.

TGCATGAAGC: the switch fluorescence ratio came to 1.034 ± 0.0057. For the sequence TGCATGATCG, the switch fluorescence ratio was found to be 1.02 ± 0.033. With TGCATGGAGC the figure was 0.9946 ± 0.0042; with TGCATGGATC, 1.02 ± 0.012; with TGCATGGGAG, 1.001 ± 0.0039. With TGCATGTCGC the figure was 0.991 ± 0.025; with TGCATTTTGC, 1.08 ± 0.023; with TGCCAAATAG, 1.02 ± 0.039.

With TGCCAATGAA, the switch fluorescence ratio is 0.965 ± 0.02.

Regarding TGCCAATGGG, the switch fluorescence ratio amounted to 1 ± 0.038. Under TGCCAGAAGG stands 1.021 ± 0.0041.

On to TGCCAGGATT, for which the switch fluorescence ratio was found to be 1.25 ± 0.42. Under TGCCAGTTCG stands 1.02 ± 0.025; under TGCCCGCCCT, 1.08 ± 0.065; under TGCCCGCTGC, 1.27 ± 0.017. With TGCCCGGACA the figure was 1.01 ± 0.027; with TGCCCGGTTT, 1.01 ± 0.0077; with TGCCCTTCAT, 1.04 ± 0.011. Under TGCCGAGGTG stands 1.38 ± 0.12. As for TGCCGGGAAA, the switch fluorescence ratio worked out at 1.01 ± 0.0084. Regarding TGCCGGTGGT, the switch fluorescence ratio came to 1.01 ± 0.035. Under TGCCGTGGGT stands 0.987 ± 0.04.

Source of the values: the supplement of paper PMC10126150.
